Test results from patent publication US20110166062A1 (INDIANA UNIVERSITY RESEARCH AND TECHNOLOGY, published 2011).
Bridges are numbered along the chain shown (N, C = ends). Where no end group is shown, it is not given here.

T1: GIP receptor (UniProt P48546 22-466)
T1 sequence (looked up): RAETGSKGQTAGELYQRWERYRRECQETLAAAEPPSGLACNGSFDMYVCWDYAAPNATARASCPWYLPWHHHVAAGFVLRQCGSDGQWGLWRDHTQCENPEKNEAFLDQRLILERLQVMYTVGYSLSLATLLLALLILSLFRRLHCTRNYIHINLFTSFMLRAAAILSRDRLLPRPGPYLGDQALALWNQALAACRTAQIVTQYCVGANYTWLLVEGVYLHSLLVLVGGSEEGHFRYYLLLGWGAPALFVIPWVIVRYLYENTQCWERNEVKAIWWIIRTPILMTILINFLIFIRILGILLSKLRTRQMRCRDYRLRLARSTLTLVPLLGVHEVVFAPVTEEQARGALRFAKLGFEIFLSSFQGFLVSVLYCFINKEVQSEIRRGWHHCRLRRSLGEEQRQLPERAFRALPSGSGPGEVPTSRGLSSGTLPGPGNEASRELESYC

B1: mt-100 (peptide)
peptide: YXEGTFISDYSIAMDKIHQQDFVNWLLAQKGKKNWLKHNITQ
modifications: C-terminal amide
B2: mt-109 (peptide)
peptide: YSQGTFTSDYSKYLDEIHQKDFVNWLLAQ-NH2
B3: mt-107 (peptide)
peptide: HSQGTFISDYSKYLDEIHQKEFIAWLMNT-NH2
modifications: lactam 16-20; N-terminus assumed
SMILES: CC[C@H](C)[C@H](NC(=O)[C@H](Cc1ccccc1)NC(=O)[C@H](CCC(=O)O)NC(=O)[C@@H]1CCCCNC(=O)CC[C@H](NC(=O)[C@H](CC(=O)O)NC(=O)[C@H](CC(C)C)NC(=O)[C@H](Cc2ccc(O)cc2)NC(=O)[C@H](CCCCN)NC(=O)[C@H](CO)NC(=O)[C@H](Cc2ccc(O)cc2)NC(=O)[C@H](CC(=O)O)NC(=O)[C@H](CO)NC(=O)[C@@H](NC(=O)[C@H](Cc2ccccc2)NC(=O)[C@@H](NC(=O)CNC(=O)[C@H](CCC(N)=O)NC(=O)[C@H](CO)NC(=O)[C@@H](N)Cc2c[nH]cn2)[C@@H](C)O)[C@@H](C)CC)C(=O)N[C@@H]([C@@H](C)CC)C(=O)N[C@@H](Cc2c[nH]cn2)C(=O)N[C@@H](CCC(N)=O)C(=O)N1)C(=O)N[C@@H](C)C(=O)N[C@@H](Cc1c[nH]c2ccccc12)C(=O)N[C@@H](CC(C)C)C(=O)N[C@@H](CCSC)C(=O)N[C@@H](CC(N)=O)C(=O)N[C@H](C(N)=O)[C@@H](C)O
B4: mt-110 (peptide)
peptide: YSQGTFTSDYSIYLDEIHQKDFVNWLLAQ-NH2
modifications: lactam 16-20; N-terminus assumed
SMILES: CC[C@H](C)[C@H](NC(=O)[C@H](CO)NC(=O)[C@H](Cc1ccc(O)cc1)NC(=O)[C@H](CC(=O)O)NC(=O)[C@H](CO)NC(=O)[C@@H](NC(=O)[C@H](Cc1ccccc1)NC(=O)[C@@H](NC(=O)CNC(=O)[C@H](CCC(N)=O)NC(=O)[C@H](CO)NC(=O)[C@@H](N)Cc1ccc(O)cc1)[C@@H](C)O)[C@@H](C)O)C(=O)N[C@@H](Cc1ccc(O)cc1)C(=O)N[C@@H](CC(C)C)C(=O)N[C@@H](CC(=O)O)C(=O)N[C@H]1CCC(=O)NCCCC[C@@H](C(=O)N[C@@H](CC(=O)O)C(=O)N[C@@H](Cc2ccccc2)C(=O)N[C@H](C(=O)N[C@@H](CC(N)=O)C(=O)N[C@@H](Cc2c[nH]c3ccccc23)C(=O)N[C@@H](CC(C)C)C(=O)N[C@@H](CC(C)C)C(=O)N[C@@H](C)C(=O)N[C@@H](CCC(N)=O)C(N)=O)C(C)C)NC(=O)[C@H](CCC(N)=O)NC(=O)[C@H](Cc2c[nH]cn2)NC(=O)[C@H]([C@@H](C)CC)NC1=O
B5: mt-99 (peptide)
peptide: YAEGTFISDYSIAMDKIHQQDFVNWLLAQKGKKNWLKHNITQ-NH2
B6: mt-98 (peptide)
peptide: YAEGTFTSDYSIYMDEIHQKDFVNWLLAQ-NH2
modifications: lactam 16-20; N-terminus assumed
SMILES: CC[C@H](C)[C@H](NC(=O)[C@H](CO)NC(=O)[C@H](Cc1ccc(O)cc1)NC(=O)[C@H](CC(=O)O)NC(=O)[C@H](CO)NC(=O)[C@@H](NC(=O)[C@H](Cc1ccccc1)NC(=O)[C@@H](NC(=O)CNC(=O)[C@H](CCC(=O)O)NC(=O)[C@H](C)NC(=O)[C@@H](N)Cc1ccc(O)cc1)[C@@H](C)O)[C@@H](C)O)C(=O)N[C@@H](Cc1ccc(O)cc1)C(=O)N[C@@H](CCSC)C(=O)N[C@@H](CC(=O)O)C(=O)N[C@H]1CCC(=O)NCCCC[C@@H](C(=O)N[C@@H](CC(=O)O)C(=O)N[C@@H](Cc2ccccc2)C(=O)N[C@H](C(=O)N[C@@H](CC(N)=O)C(=O)N[C@@H](Cc2c[nH]c3ccccc23)C(=O)N[C@@H](CC(C)C)C(=O)N[C@@H](CC(C)C)C(=O)N[C@@H](C)C(=O)N[C@@H](CCC(N)=O)C(N)=O)C(C)C)NC(=O)[C@H](CCC(N)=O)NC(=O)[C@H](Cc2c[nH]cn2)NC(=O)[C@H]([C@@H](C)CC)NC1=O
B7: mt-96 (peptide)
peptide: YAEGTFISDYSIAMDEIHQKDFVNWLLAQ-NH2
modifications: lactam 16-20; N-terminus assumed
SMILES: CC[C@H](C)[C@H](NC(=O)[C@H](CO)NC(=O)[C@H](Cc1ccc(O)cc1)NC(=O)[C@H](CC(=O)O)NC(=O)[C@H](CO)NC(=O)[C@@H](NC(=O)[C@H](Cc1ccccc1)NC(=O)[C@@H](NC(=O)CNC(=O)[C@H](CCC(=O)O)NC(=O)[C@H](C)NC(=O)[C@@H](N)Cc1ccc(O)cc1)[C@@H](C)O)[C@@H](C)CC)C(=O)N[C@@H](C)C(=O)N[C@@H](CCSC)C(=O)N[C@@H](CC(=O)O)C(=O)N[C@H]1CCC(=O)NCCCC[C@@H](C(=O)N[C@@H](CC(=O)O)C(=O)N[C@@H](Cc2ccccc2)C(=O)N[C@H](C(=O)N[C@@H](CC(N)=O)C(=O)N[C@@H](Cc2c[nH]c3ccccc23)C(=O)N[C@@H](CC(C)C)C(=O)N[C@@H](CC(C)C)C(=O)N[C@@H](C)C(=O)N[C@@H](CCC(N)=O)C(N)=O)C(C)C)NC(=O)[C@H](CCC(N)=O)NC(=O)[C@H](Cc2c[nH]cn2)NC(=O)[C@H]([C@@H](C)CC)NC1=O
B8: mt-108 (peptide)
peptide: HSQGTFISDYSKALDEIHQKEFIAWLMNT-NH2
modifications: lactam 16-20; N-terminus assumed
SMILES: CC[C@H](C)[C@H](NC(=O)[C@H](Cc1ccccc1)NC(=O)[C@H](CCC(=O)O)NC(=O)[C@@H]1CCCCNC(=O)CC[C@H](NC(=O)[C@H](CC(=O)O)NC(=O)[C@H](CC(C)C)NC(=O)[C@H](C)NC(=O)[C@H](CCCCN)NC(=O)[C@H](CO)NC(=O)[C@H](Cc2ccc(O)cc2)NC(=O)[C@H](CC(=O)O)NC(=O)[C@H](CO)NC(=O)[C@@H](NC(=O)[C@H](Cc2ccccc2)NC(=O)[C@@H](NC(=O)CNC(=O)[C@H](CCC(N)=O)NC(=O)[C@H](CO)NC(=O)[C@@H](N)Cc2c[nH]cn2)[C@@H](C)O)[C@@H](C)CC)C(=O)N[C@@H]([C@@H](C)CC)C(=O)N[C@@H](Cc2c[nH]cn2)C(=O)N[C@@H](CCC(N)=O)C(=O)N1)C(=O)N[C@@H](C)C(=O)N[C@@H](Cc1c[nH]c2ccccc12)C(=O)N[C@@H](CC(C)C)C(=O)N[C@@H](CCSC)C(=O)N[C@@H](CC(N)=O)C(=O)N[C@H](C(N)=O)[C@@H](C)O
B9: mt-97 (peptide)
peptide: HAEGTFTSDYSIYMDEIHQKDFVNWLLAQ-NH2
modifications: lactam 16-20; N-terminus assumed
SMILES: CC[C@H](C)[C@H](NC(=O)[C@H](CO)NC(=O)[C@H](Cc1ccc(O)cc1)NC(=O)[C@H](CC(=O)O)NC(=O)[C@H](CO)NC(=O)[C@@H](NC(=O)[C@H](Cc1ccccc1)NC(=O)[C@@H](NC(=O)CNC(=O)[C@H](CCC(=O)O)NC(=O)[C@H](C)NC(=O)[C@@H](N)Cc1c[nH]cn1)[C@@H](C)O)[C@@H](C)O)C(=O)N[C@@H](Cc1ccc(O)cc1)C(=O)N[C@@H](CCSC)C(=O)N[C@@H](CC(=O)O)C(=O)N[C@H]1CCC(=O)NCCCC[C@@H](C(=O)N[C@@H](CC(=O)O)C(=O)N[C@@H](Cc2ccccc2)C(=O)N[C@H](C(=O)N[C@@H](CC(N)=O)C(=O)N[C@@H](Cc2c[nH]c3ccccc23)C(=O)N[C@@H](CC(C)C)C(=O)N[C@@H](CC(C)C)C(=O)N[C@@H](C)C(=O)N[C@@H](CCC(N)=O)C(N)=O)C(C)C)NC(=O)[C@H](CCC(N)=O)NC(=O)[C@H](Cc2c[nH]cn2)NC(=O)[C@H]([C@@H](C)CC)NC1=O

What follows are binders tested against glucagon receptor (UniProt P47871 26-477, limits assumed) (assay: cell-based or functional assay).
Sequence of glucagon receptor (P47871 26-477 limits assumed): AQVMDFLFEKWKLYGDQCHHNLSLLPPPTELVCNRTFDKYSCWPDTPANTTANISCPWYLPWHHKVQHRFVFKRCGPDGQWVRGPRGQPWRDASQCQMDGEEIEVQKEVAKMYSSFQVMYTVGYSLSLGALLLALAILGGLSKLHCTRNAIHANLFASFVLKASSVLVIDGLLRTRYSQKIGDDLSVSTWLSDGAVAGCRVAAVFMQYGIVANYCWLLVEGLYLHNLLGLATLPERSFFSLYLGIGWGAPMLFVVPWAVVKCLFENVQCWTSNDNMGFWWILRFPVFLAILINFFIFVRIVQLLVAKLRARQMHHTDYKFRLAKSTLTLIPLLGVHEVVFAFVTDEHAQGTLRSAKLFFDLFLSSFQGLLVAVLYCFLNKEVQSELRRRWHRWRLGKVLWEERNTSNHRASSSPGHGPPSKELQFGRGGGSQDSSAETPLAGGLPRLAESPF

Going from B1 to B2, the “EC50” value falls from 1460 nM to 0.13 nM (11000-fold).

Going from B3 to B4, the “EC50” value rises from 0.07 nM to 0.43 nM (6.1-fold).

Compared with B5, B6 is 24-fold lower in “EC50” value: 23300 nM for the first, 957 nM for the second.

Compared with B7, B8 is 320-fold lower in “EC50” value: 61.7 nM for the first, 0.19 nM for the second.

B9 was tested, and the “EC50” value was 4.08 nM.

Going from B1 to B2, the relative activity rises from 0.01% to 76.9%.

First: B3
Second: B4
The relative activity of the first is higher: 186% for the first, 23.3% for the second.

First: B5
Second: B6
The relative activity of the first is lower: 0% for the first, 0.01% for the second.

Compared with B7, B8 is higher in relative activity: 0.29% for the first, 68.4% for the second.

B9 gave a relative activity of 3.19%.

Each binder was assayed against GLP-1 receptor (UniProt P43220 24-463, limits assumed) (assay: cell-based or functional assay).

Going from B1 to B2, the “EC50” value falls from 552 nM to 3.86 nM (140-fold).

First: B3
Second: B4
The “EC50” value of the first is 12-fold higher: 24.8 nM for the first, 2.02 nM for the second.

First: B5
Second: B6
The “EC50” value of the first is 1600-fold higher: 4550 nM for the first, 2.82 nM for the second.

First: B7
Second: B8
The “EC50” value of the first is 290-fold higher: 92.9 nM for the first, 0.32 nM for the second.

In the case of B9, the “EC50” value is reported as 2.36 nM.

First: B1
Second: B2
The relative activity of the first is lower: 0.01% for the first, 0.78% for the second.

First: B3
Second: B4
The relative activity of the first is lower: 0.16% for the first, 1.49% for the second.

Going from B5 to B6, the relative activity rises from 0% to 1.42%.

First: B7
Second: B8
The relative activity of the first is lower: 0.04% for the first, 12.5% for the second.

With B9 the relative activity was 1.27%.

These binders were tested against T1, GIP receptor (assay: cell-based or functional assay).

First: B1
Second: B2
The “EC50” value of the first is 41-fold lower: 0.016 nM for the first, 0.658 nM for the second.

Compared with B3, B4 is 7.1-fold lower in “EC50” value: 3.37 nM for the first, 0.478 nM for the second.

First: B5
Second: B6
The “EC50” value of the first is 4-fold lower: 0.049 nM for the first, 0.196 nM for the second.

Compared with B7, B8 is 82-fold higher in “EC50” value: 0.058 nM for the first, 4.78 nM for the second.

In the case of B9, the “EC50” value is reported as 1.75 nM.

Going from B1 to B2, the relative activity falls from 306% to 6.99%.

First: B3
Second: B4
The relative activity of the first is lower: 0.74% for the first, 9.62% for the second.

Going from B5 to B6, the relative activity falls from 100% to 25%.

Compared with B7, B8 is lower in relative activity: 84.5% for the first, 0.52% for the second.

With B9 the relative activity was 2.81%.
